Like-named read-outs stand apart in the source and are kept apart here. *1 amine or outer side, *2 acyl side, *3 side chain or, on linkers, in order; H or OH if unused. Where no end group is shown, it is not given here. Side-chain parts run from the residue outwards. The star is where a group is joined. C18 diacid = O=C(O)CCCCCCCCCCCCCCCCC(=O)*; C16 diacid = O=C(O)CCCCCCCCCCCCCCC(=O)*; γGlu = O=C(O)[C@H](CCC(=O)[*:2])N[*:1]; AEEA = NCCOCCOCC(=O)O
Key:
[1] = target: T1, human GIP receptor (human, UniProt P48546 22-466); experiment: cell-based or functional assay
T1 sequence (looked up): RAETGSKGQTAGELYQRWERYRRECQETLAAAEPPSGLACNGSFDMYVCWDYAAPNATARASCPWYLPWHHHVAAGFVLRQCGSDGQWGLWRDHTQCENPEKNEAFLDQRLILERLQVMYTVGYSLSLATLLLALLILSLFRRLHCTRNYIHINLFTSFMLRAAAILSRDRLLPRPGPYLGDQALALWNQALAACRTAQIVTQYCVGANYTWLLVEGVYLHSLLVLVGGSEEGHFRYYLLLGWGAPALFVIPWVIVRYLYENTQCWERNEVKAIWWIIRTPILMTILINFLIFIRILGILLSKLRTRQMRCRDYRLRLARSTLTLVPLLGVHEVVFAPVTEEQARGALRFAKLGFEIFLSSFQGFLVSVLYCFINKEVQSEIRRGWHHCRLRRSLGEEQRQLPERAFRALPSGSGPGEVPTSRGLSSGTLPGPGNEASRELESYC

[2] = target: T1, human GIP receptor; experiment: cell-based or functional assay; remark: listed apart in the source

B1: AT467 (peptide)
peptide: EGTFISDYSIAMDKIK(C16 diacid)QQDFVNWLLAQKGPSSGAPPP-OH
modifications: N-terminus assumed
SMILES: CC[C@H](C)[C@H](NC(=O)[C@H](CO)NC(=O)[C@H](Cc1ccc(O)cc1)NC(=O)[C@H](CC(=O)O)NC(=O)[C@H](CO)NC(=O)[C@@H](NC(=O)[C@H](Cc1ccccc1)NC(=O)[C@@H](NC(=O)CNC(=O)[C@@H](N)CCC(=O)O)[C@@H](C)O)[C@@H](C)CC)C(=O)N[C@@H](C)C(=O)N[C@@H](CCSC)C(=O)N[C@@H](CC(=O)O)C(=O)N[C@@H](CCCCN)C(=O)N[C@H](C(=O)N[C@@H](CCCCNC(=O)CCCCCCCCCCCCCCC(=O)O)C(=O)N[C@@H](CCC(N)=O)C(=O)N[C@@H](CCC(N)=O)C(=O)N[C@@H](CC(=O)O)C(=O)N[C@@H](Cc1ccccc1)C(=O)N[C@H](C(=O)N[C@@H](CC(N)=O)C(=O)N[C@@H](Cc1c[nH]c2ccccc12)C(=O)N[C@@H](CC(C)C)C(=O)N[C@@H](CC(C)C)C(=O)N[C@@H](C)C(=O)N[C@@H](CCC(N)=O)C(=O)N[C@@H](CCCCN)C(=O)NCC(=O)N1CCC[C@H]1C(=O)N[C@@H](CO)C(=O)N[C@@H](CO)C(=O)NCC(=O)N[C@@H](C)C(=O)N1CCC[C@H]1C(=O)N1CCC[C@H]1C(=O)N1CCC[C@H]1C(=O)O)C(C)C)[C@@H](C)CC
In the case of B1, the “cAMP antagonism” value [1] is reported as 6 nM, the “cAMP antagonism % inhib” value [1] is reported as 100% and the cAMP antagonism log [1] is reported as -8.2 log M. The “cAMP agonism % Emax” value [2] was 0%, the “cAMP antagonism” value [2] was 14.7 nM and the “cAMP antagonism % inhib” value [2] was 86%. The “cAMP antagonism pIC50” value [2] was 7.8.

B2: AT441 (peptide)
peptide: SGTFISDYSIAMDRIK([AEEA-AEEA-γGlu-C18 diacid])QQDFVNWLLAQRGPSSGAPPPS-OH
modifications: N-terminus assumed
SMILES: CC[C@H](C)[C@H](NC(=O)[C@H](CO)NC(=O)[C@H](Cc1ccc(O)cc1)NC(=O)[C@H](CC(=O)O)NC(=O)[C@H](CO)NC(=O)[C@@H](NC(=O)[C@H](Cc1ccccc1)NC(=O)[C@@H](NC(=O)CNC(=O)[C@@H](N)CO)[C@@H](C)O)[C@@H](C)CC)C(=O)N[C@@H](C)C(=O)N[C@@H](CCSC)C(=O)N[C@@H](CC(=O)O)C(=O)N[C@@H](CCCNC(=N)N)C(=O)N[C@H](C(=O)N[C@@H](CCCCNC(=O)COCCOCCNC(=O)COCCOCCNC(=O)CC[C@H](NC(=O)CCCCCCCCCCCCCCCCC(=O)O)C(=O)O)C(=O)N[C@@H](CCC(N)=O)C(=O)N[C@@H](CCC(N)=O)C(=O)N[C@@H](CC(=O)O)C(=O)N[C@@H](Cc1ccccc1)C(=O)N[C@H](C(=O)N[C@@H](CC(N)=O)C(=O)N[C@@H](Cc1c[nH]c2ccccc12)C(=O)N[C@@H](CC(C)C)C(=O)N[C@@H](CC(C)C)C(=O)N[C@@H](C)C(=O)N[C@@H](CCC(N)=O)C(=O)N[C@@H](CCCNC(=N)N)C(=O)NCC(=O)N1CCC[C@H]1C(=O)N[C@@H](CO)C(=O)N[C@@H](CO)C(=O)NCC(=O)N[C@@H](C)C(=O)N1CCC[C@H]1C(=O)N1CCC[C@H]1C(=O)N1CCC[C@H]1C(=O)N[C@@H](CO)C(=O)O)C(C)C)[C@@H](C)CC
In the case of B2, the “cAMP antagonism” value [1] is reported as 25 nM, the “cAMP antagonism % inhib” value [1] is reported as 55% and the cAMP antagonism log [1] is reported as -7.6 log M. For the same binder, the “cAMP agonism % Emax” value [2] was 0%, the “cAMP antagonism” value [2] was 21.5 nM and the “cAMP antagonism % inhib” value [2] was 89%. The “cAMP antagonism pIC50” value [2] was 7.7.
